Measurements as given in article doi:10.1101/2025.06.13.659598 (bioRxiv, 2025).

Biological target: F-actin (rabbit skeletal muscle actin, polymerised) (rabbit, UniProt P68135 1-377)
Assay: co-sedimentation

binding result: binds
B1: FHOD1 wild-type, full length (natural protein)
chain: MAGGEDRGDGEPVSVVTVRVQYLEDTDPFACANFPEPRRAPTCSLDGALPLGAQIPAVHRLLGAPLKLEDCALQVSPSGYYLDTELSLEEQREMLEGFYEEISKGRKPTLILRTQLSVRVNAILEKLYSSSGPELRRSLFSLKQIFQEDKDLVPEFVHSEGLSCLIRVGAAADHNYQSYILRALGQLMLFVDGMLGVVAHSDTIQWLYTLCASLSRLVVKTALKLLLVFVEYSENNAPLFIRAVNSVASTTGAPPWANLVSILEEKNGADPELLVYTVTLINKTLAALPDQDSFYDVTDALEQQGMEALVQRHLGTAGTDVDLRTQLVLYENALKLEDGDIEEAPGAGGRRERRKPSSEEGKRSRRSLEGGGCPARAPEPGPTGPASPVGPTSSTGPALLTGPASSPVGPPSGLQASVNLFPTISVAPSADTSSERSIYKARFLENVAAAETEKQVALAQGRAETLAGAMPNEAGGHPDARQLWDSPETAPAARTPQSPAPCVLLRAQRSLAPEPKEPLIPASPKAEPIWELPTRAPRLSIGDLDFSDLGEDEDQDMLNVESVEAGKDIPAPSPPLPLLSGVPPPPPLPPPPPIKGPFPPPPPLPLAAPLPHSVPDSSALPTKRKTVKLFWRELKLAGGHGVSASRFGPCATLWASLDPVSVDTARLEHLFESRAKEVLPSKKAGEGRRTMTTVLDPKRSNAINIGLTTLPPVHVIKAALLNFDEFAVSKDGIEKLLTMMPTEEERQKIEEAQLANPDIPLGPAENFLMTLASIGGLAARLQLWAFKLDYDSMEREIAEPLFDLKVGMEQLVQNATFRCILATLLAVGNFLNGSQSSGFELSYLEKVSEVKDTVRRQSLLHHLCSLVLQTRPESSDLYSEIPALTRCAKVDFEQLTENLGQLERRSRAAEESLRSLAKHELAPALRARLTHFLDQCARRVAMLRIVHRRVCNRFHAFLLYLGYTPQAAREVRIMQFCHTLREFALEYRTCRERVLQQQQKQATYRERNKTRGRMITETEKFSGVAGEAPSNPSVPVAVSSGPGRGDADSHASMKSLLTSRPEDTTHNRRSRGMVQSSSPIMPTVGPSTASPEEPPGSSLPSDTSDEIMDLLVQSVTKSSPRALAARERKRSRGNRKSLRRTLKSGLGDDLVQALGLSKGPGLEV
